According to patent US20120122239A1:

How the values were obtained:
[1] = molecular target: human NT-pro B-type natriuretic peptide (HyTest, Turku, Finland; Catalog No. 8NT1) (human); experiment: sandwich CMIA, capture 15C4, analyte 577.4 pM
[2] = molecular target: glycosylated human proBNP (HyTest, Turku, Finland; Catalog No. 8GOB2) (human); experiment: sandwich CMIA, capture 15C4, analyte 577.4 pM
[3] = molecular target: human pro B-type natriuretic peptide (HyTest, Turku, Finland; Catalog No. 8PRO8) (human); experiment: sandwich CMIA, capture 15C4, analyte 577.4 pM
Chain of human pro B-type natriuretic peptide (HyTest, Turku, Finland; Catalog No. 8PRO8) (human) (chain, as listed by the source): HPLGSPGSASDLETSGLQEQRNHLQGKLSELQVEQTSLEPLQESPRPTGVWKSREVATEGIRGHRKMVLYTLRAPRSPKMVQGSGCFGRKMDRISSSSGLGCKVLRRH

[4] = molecular target: glycosylated human proBNP (HyTest, Turku, Finland; Catalog No. 8GOB2) (human); experiment: sandwich CMIA, capture 15C4, 43.3 pM, against human NT-proBNP
[5] = molecular target: human pro B-type natriuretic peptide (HyTest, Turku, Finland; Catalog No. 8PRO8) (human); experiment: as above
[6] = molecular target: human NT-pro B-type natriuretic peptide (HyTest, Turku, Finland; Catalog No. 8NT1) (human); experiment: sandwich CMIA, capture 15C4, analyte 86.6 pM
[7] = molecular target: glycosylated human proBNP (HyTest, Turku, Finland; Catalog No. 8GOB2) (human); experiment: sandwich CMIA, capture 15C4, analyte 86.6 pM
[8] = molecular target: human pro B-type natriuretic peptide (HyTest, Turku, Finland; Catalog No. 8PRO8) (human); experiment: sandwich CMIA, capture 15C4, analyte 86.6 pM
[9] = molecular target: glycosylated human proBNP (HyTest, Turku, Finland; Catalog No. 8GOB2) (human); experiment: sandwich CMIA, capture 15C4, 86.6 pM, against human NT-proBNP
[10] = molecular target: human pro B-type natriuretic peptide (HyTest, Turku, Finland; Catalog No. 8PRO8) (human); experiment: as above
[11] = molecular target: human NT-pro B-type natriuretic peptide (HyTest, Turku, Finland; Catalog No. 8NT1) (human); experiment: sandwich CMIA, capture 15C4, analyte 288.7 pM
[12] = molecular target: glycosylated human proBNP (HyTest, Turku, Finland; Catalog No. 8GOB2) (human); experiment: sandwich CMIA, capture 15C4, analyte 288.7 pM
[13] = molecular target: human NT-pro B-type natriuretic peptide (HyTest, Turku, Finland; Catalog No. 8NT1) (human); experiment: sandwich CMIA, capture 15C4, analyte 0.0 pM (blank)
[14] = molecular target: glycosylated human proBNP (HyTest, Turku, Finland; Catalog No. 8GOB2) (human); experiment: as above
[15] = molecular target: human pro B-type natriuretic peptide (HyTest, Turku, Finland; Catalog No. 8PRO8) (human); experiment: as above
[16] = molecular target: glycosylated human proBNP (HyTest, Turku, Finland; Catalog No. 8GOB2) (human); experiment: sandwich CMIA, capture 15F11, 86.6 pM, against human NT-proBNP
[17] = molecular target: human pro B-type natriuretic peptide (HyTest, Turku, Finland; Catalog No. 8PRO8) (human); experiment: as above
[18] = molecular target: human NT-pro B-type natriuretic peptide (HyTest, Turku, Finland; Catalog No. 8NT1) (human); experiment: sandwich CMIA, capture 15F11, analyte 86.6 pM
[19] = molecular target: glycosylated human proBNP (HyTest, Turku, Finland; Catalog No. 8GOB2) (human); experiment: sandwich CMIA, capture 15F11, analyte 86.6 pM
[20] = molecular target: human pro B-type natriuretic peptide (HyTest, Turku, Finland; Catalog No. 8PRO8) (human); experiment: sandwich CMIA, capture 15F11, analyte 86.6 pM
[21] = molecular target: glycosylated human proBNP (HyTest, Turku, Finland; Catalog No. 8GOB2) (human); experiment: sandwich CMIA, capture 15C4, 288.7 pM, against human NT-proBNP
[22] = molecular target: human pro B-type natriuretic peptide (HyTest, Turku, Finland; Catalog No. 8PRO8) (human); experiment: as above
[23] = molecular target: human NT-pro B-type natriuretic peptide (HyTest, Turku, Finland; Catalog No. 8NT1) (human); experiment: sandwich CMIA, capture 15F11, analyte 0.0 pM (blank)
[24] = molecular target: glycosylated human proBNP (HyTest, Turku, Finland; Catalog No. 8GOB2) (human); experiment: as above
[25] = molecular target: human pro B-type natriuretic peptide (HyTest, Turku, Finland; Catalog No. 8PRO8) (human); experiment: as above
[26] = molecular target: glycosylated human proBNP (HyTest, Turku, Finland; Catalog No. 8GOB2) (human); experiment: sandwich CMIA, capture 15F11, 43.3 pM, against human NT-proBNP
[27] = molecular target: human pro B-type natriuretic peptide (HyTest, Turku, Finland; Catalog No. 8PRO8) (human); experiment: as above
[28] = molecular target: human NT-pro B-type natriuretic peptide (HyTest, Turku, Finland; Catalog No. 8NT1) (human); experiment: sandwich CMIA, capture 15F11, analyte 288.7 pM
[29] = molecular target: glycosylated human proBNP (HyTest, Turku, Finland; Catalog No. 8GOB2) (human); experiment: sandwich CMIA, capture 15F11, analyte 288.7 pM
[30] = molecular target: human pro B-type natriuretic peptide (HyTest, Turku, Finland; Catalog No. 8PRO8) (human); experiment: sandwich CMIA, capture 15F11, analyte 288.7 pM
[31] = molecular target: glycosylated human proBNP (HyTest, Turku, Finland; Catalog No. 8GOB2) (human); experiment: sandwich CMIA, capture 15C4, 577.4 pM, against human NT-proBNP
[32] = molecular target: human pro B-type natriuretic peptide (HyTest, Turku, Finland; Catalog No. 8PRO8) (human); experiment: as above
[33] = molecular target: glycosylated human proBNP (HyTest, Turku, Finland; Catalog No. 8GOB2) (human); experiment: sandwich CMIA, capture 15F11, 577.4 pM, against human NT-proBNP
[34] = molecular target: human pro B-type natriuretic peptide (HyTest, Turku, Finland; Catalog No. 8PRO8) (human); experiment: as above

Chain of human NT-pro B-type natriuretic peptide (HyTest, Turku, Finland; Catalog No. 8NT1) (human) (chain, as listed by the source): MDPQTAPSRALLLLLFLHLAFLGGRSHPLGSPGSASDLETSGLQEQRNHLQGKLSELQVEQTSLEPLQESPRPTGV

How did the Analyte rlus [1] turn out when “anti-human NT-proBNP/anti-human proBNP labeled monoclonal antibody 29D12 (HyTest, Turku, Finland)” was run?
Its Analyte rlus is 180000 rlus.

And the Analyte rlus [2]?
Its Analyte rlus is 1420 rlus.

What about the Analyte rlus [3] of the same substance?
Its Analyte rlus is 25900 rlus.

What about the % Cross-reactivity [4] of the same substance?
Its % Cross-reactivity is -0.2%.

And the % Cross-reactivity [5]?
The % Cross-reactivity was 16%.

And the Analyte rlus [6]?
Its Analyte rlus is 19300 rlus.

What about the Analyte rlus [7] of the same substance?
Its Analyte rlus is 1020 rlus.

And the Analyte rlus [8]?
The Analyte rlus was 3830 rlus.

And the % Cross-reactivity [9]?
Its % Cross-reactivity is 0.7%.

What about the % Cross-reactivity [10] of the same substance?
The % Cross-reactivity was 16%.

What about the Analyte rlus [11] of the same substance?
The Analyte rlus was 82800 rlus.

What about the Analyte rlus [12] of the same substance?
Its Analyte rlus is 1220 rlus.

What about the Analyte rlus [13] of the same substance?
Its Analyte rlus is 892 rlus.

What about the Analyte rlus [14] of the same substance?
Its Analyte rlus is 892 rlus.

What about the Analyte rlus [15] of the same substance?
The Analyte rlus was 892 rlus.

What about the % Cross-reactivity [16] of the same substance?
The % Cross-reactivity was 136%.

What about the % Cross-reactivity [17] of the same substance?
The % Cross-reactivity was 49.3%.

What about the Analyte rlus [18] of the same substance?
Its Analyte rlus is 3540 rlus.

And the Analyte rlus [19]?
Its Analyte rlus is 4470 rlus.

And the Analyte rlus [20]?
Its Analyte rlus is 2210 rlus.

What about the % Cross-reactivity [21] of the same substance?
The % Cross-reactivity was 0.4%.

And the % Cross-reactivity [22]?
Its % Cross-reactivity is 13.7%.

And the Analyte rlus [23]?
Its Analyte rlus is 912 rlus.

And the Analyte rlus [24]?
Its Analyte rlus is 912 rlus.

What about the Analyte rlus [25] of the same substance?
The Analyte rlus was 912 rlus.

What about the % Cross-reactivity [26] of the same substance?
Its % Cross-reactivity is 132%.

And the % Cross-reactivity [27]?
Its % Cross-reactivity is 61.2%.

What about the Analyte rlus [28] of the same substance?
The Analyte rlus was 14600 rlus.

And the Analyte rlus [29]?
Its Analyte rlus is 16400 rlus.

What about the Analyte rlus [30] of the same substance?
Its Analyte rlus is 6140 rlus.

What about the % Cross-reactivity [31] of the same substance?
The % Cross-reactivity was 0.3%.

And the % Cross-reactivity [32]?
The % Cross-reactivity was 14%.

What about the % Cross-reactivity [33] of the same substance?
The % Cross-reactivity was 115%.

And the % Cross-reactivity [34]?
Its % Cross-reactivity is 31.8%.
